In US10005817:

Target: PTH receptor (PTHR1) (human) (UniProt Q03431)
Test: cell-based or functional assay

PTH receptor (PTHR1) (human), sequence (Q03431 27-593): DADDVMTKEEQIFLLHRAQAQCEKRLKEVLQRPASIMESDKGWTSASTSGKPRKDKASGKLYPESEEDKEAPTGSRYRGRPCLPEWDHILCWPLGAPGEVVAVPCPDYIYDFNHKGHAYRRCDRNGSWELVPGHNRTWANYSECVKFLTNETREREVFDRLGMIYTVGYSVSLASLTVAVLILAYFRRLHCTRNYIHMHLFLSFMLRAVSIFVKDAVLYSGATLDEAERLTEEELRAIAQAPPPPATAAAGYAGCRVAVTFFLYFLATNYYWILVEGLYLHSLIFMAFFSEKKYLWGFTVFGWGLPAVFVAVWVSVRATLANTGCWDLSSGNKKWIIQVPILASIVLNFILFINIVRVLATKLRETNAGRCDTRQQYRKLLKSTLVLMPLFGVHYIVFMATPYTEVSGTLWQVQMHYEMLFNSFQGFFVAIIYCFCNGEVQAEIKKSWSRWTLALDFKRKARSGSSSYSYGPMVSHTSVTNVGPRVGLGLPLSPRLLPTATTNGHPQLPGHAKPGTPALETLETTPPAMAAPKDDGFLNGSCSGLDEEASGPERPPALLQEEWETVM

Substance: PTH (internal standard) (ligand)
- maximal response: 105%
